Test results: US20240270857A1 (CHIA TAI TIANQING PHARMACEUTICAL GROUP, published 2024)

Assays:
[1] = target: T1, cynomolgus IL-36R overexpressed on 293T-CynoIL36R-NFκB cells (cynomolgus monkey); assay: cell-based or functional assay
T1 chain: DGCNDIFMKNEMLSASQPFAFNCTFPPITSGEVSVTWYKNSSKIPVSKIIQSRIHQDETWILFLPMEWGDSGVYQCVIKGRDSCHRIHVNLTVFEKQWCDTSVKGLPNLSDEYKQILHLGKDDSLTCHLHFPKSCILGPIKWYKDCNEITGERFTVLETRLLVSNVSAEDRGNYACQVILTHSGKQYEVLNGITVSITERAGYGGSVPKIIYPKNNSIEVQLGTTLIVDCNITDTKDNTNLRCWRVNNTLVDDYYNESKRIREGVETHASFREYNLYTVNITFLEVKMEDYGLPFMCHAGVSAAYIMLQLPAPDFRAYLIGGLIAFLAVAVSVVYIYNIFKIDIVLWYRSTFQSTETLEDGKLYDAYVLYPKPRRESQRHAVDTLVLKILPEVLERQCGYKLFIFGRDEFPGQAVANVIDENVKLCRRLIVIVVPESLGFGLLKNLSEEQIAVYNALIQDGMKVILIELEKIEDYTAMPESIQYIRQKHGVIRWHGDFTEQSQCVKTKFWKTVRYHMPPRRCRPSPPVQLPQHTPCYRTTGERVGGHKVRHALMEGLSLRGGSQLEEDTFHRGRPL

[2] = target: T2, CynoIL36R-ECD mFc recombinant protein (cynomolgus monkey); assay: BLI (ForteBio Octet), antibody on ProA sensor, 1:1 model
T2 construct: Made in ExpiCHO, purified on Protein A; also called cynomolgus IL-36R extracellular region with mouse antibody heavy chain Fc
T2 chain: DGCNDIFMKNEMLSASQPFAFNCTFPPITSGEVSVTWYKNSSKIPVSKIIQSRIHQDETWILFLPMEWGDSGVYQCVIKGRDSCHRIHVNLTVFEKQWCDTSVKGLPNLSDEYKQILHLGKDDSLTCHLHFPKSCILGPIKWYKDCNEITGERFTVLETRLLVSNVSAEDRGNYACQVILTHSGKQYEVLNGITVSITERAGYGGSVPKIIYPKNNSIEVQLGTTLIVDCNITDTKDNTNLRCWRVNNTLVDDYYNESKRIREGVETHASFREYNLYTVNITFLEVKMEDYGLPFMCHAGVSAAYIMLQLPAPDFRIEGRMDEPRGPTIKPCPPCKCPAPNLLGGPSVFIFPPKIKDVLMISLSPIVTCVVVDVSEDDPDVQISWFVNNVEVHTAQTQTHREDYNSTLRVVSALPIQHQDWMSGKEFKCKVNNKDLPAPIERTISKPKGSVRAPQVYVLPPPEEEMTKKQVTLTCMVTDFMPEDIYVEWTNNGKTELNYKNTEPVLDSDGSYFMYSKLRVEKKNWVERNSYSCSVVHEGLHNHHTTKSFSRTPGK
Procedure: (§1) The affinity of anti-IL-36R antibodies to CynoIL36R-ECD mFc and human IL-1Rrp2/IL-IR6 protein, His Tag (ACROBiosystems, IL2-H52H6) was measured by a ForteBio molecular interaction instrument. […] And then the biosensor was used to bind CynoIL36R-ECD mFc or human IL-1Rrp2/IL-1R6 protein, His Tag which was diluted by a gradient (the initial concentration was 200 nM, 2-fold gradient dilution), the response signals were detected in real time using a Fortebio molecular interaction instrument (SARTORIUS, octet red 96e), and association and dissociation curves were obtained. After the completion of dissociation in each cycle, the biosensor was regenerated for the next capture; the procedure was repeated until the affinity of the different anti-IL-36R antibodies for IL-36R was determined. The resulting data were analyzed by Fortebio Data Analysis 11.0 software in a 1:1 (Langmuir) binding model to determine kₐ (kₒₙ) and kd (koff) values, and the dissociation constant KD was calculated by KD=kd/kₐ. The detection method essentially followed the manufacturer's recommendations, and more information could be found at www.fortebio.com.
Affinity, binding and blocking assays for humanized antibodies hz72C1-1.1, hz72C1-1.2, hz72C1-1.3, hz72C1-2.1, hz72C1-2.2 and hz72C1-2.3 as well as hz84C4-1.1, hz84C4-1.2, hz84C4-1.3, hz84C4-1.4, hz84C4-1.5, hz84C4-2.1, hz84C4-2.2, hz84C4-2.3, hz84C4-2.4 and hz84C4-2.5 were performed according to the methods of Example 4, Example 5. Example 6, Example 7 and Example 8.

[3] = target: T1, cynomolgus IL-36R overexpressed on …; assay: cell-based or functional assay
[4] = target: T3, Human IL-1Rrp2/IL-1R6 protein, His Tag (ACROBiosystems, IL2-H52H6) (human, UniProt Q9HB29 20-335); assay: BLI (ForteBio Octet), antibody on ProA sensor, 1:1 model
T3 construct: Bought protein; the soluble protein is likely only the extracellular part; also called hIL-36R; human IL36R antigen; not shown: His tag
T3 sequence: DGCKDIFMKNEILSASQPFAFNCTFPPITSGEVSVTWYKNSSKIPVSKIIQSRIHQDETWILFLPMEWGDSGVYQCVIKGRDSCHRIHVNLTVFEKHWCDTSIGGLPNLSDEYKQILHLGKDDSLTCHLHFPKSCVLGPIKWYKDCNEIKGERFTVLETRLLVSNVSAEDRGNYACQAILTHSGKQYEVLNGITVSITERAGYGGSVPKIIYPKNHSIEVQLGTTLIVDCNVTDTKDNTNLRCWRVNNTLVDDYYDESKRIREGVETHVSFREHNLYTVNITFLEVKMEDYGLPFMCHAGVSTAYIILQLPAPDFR
Procedure: as §1

Binder | IC50; NFκB-luciferase reporter in 293T-CynoIL36R-NFκB cells stimulated with hIL36γ, inhibition rate % [1] [nM] | Kd [2] [nM] | koff [2] [s⁻¹] | kon [2] [M⁻¹ s⁻¹] | IC50 (M); hIL36α; NFκB-luciferase [3] [M] | IC50 (M); hIL36β; NFκB-luciferase [3] [M] | IC50 (M); hIL36γ; NFκB-luciferase [3] [M] | Maximum inhibition rate %; hIL36α; NFκB-luciferase [3] [%] | Maximum inhibition rate %; hIL36β; NFκB-luciferase [3] [%] | Maximum inhibition rate %; hIL36γ; NFκB-luciferase [3] [%] | Kd [4] [nM] | koff [4] [s⁻¹] | kon [4] [M⁻¹ s⁻¹]
chimeric 72C1 antibody (antibody, human IgG4 S228P, kappa, Mouse variable regions on human IgG4 / kappa; also called xi72C1) heavy: not shown light: EILLTQSPAIMSATLGEKVTMSCRASSNVRYMYWYQLKSGASPKLWIYLTSNLASGVPARFSGSGSGTSYSLTISSVEAEDAATYFCQQFTTSPYTFGGGTKLEIKRTVAAPSVFIFPPSDEQLKSGTASVVCLLNNFYPREAKVQWKVDNALQSGNSQESVTEQDSKDSTYSLSSTLTLSKADYEKHKVYACEVTHQGLSSPVTKSFNRGEC | 2.38 | 0.352 | 9.04e-06 | 25700 |  |  |  |  |  |  |  |  | 
BI655130 (antibody, human IgG1, kappa, L234A L235A, also called Spesolimab) heavy: not shown light: QIVLTQSPGTLSLSPGERATMTCTASSSVSSSYFHWYQQKPGQAPRLWIYRTSRLASGVPDRFSGSGSGTDFTLTISRLEPEDAATYYCHQFHRSPLTFGAGTKLEIKRTVAAPSVFIFPPSDEQLKSGTASVVCLLNNFYPREAKVQWKVDNALQSGNSQESVTEQDSKDSTYSLSSTLTLSKADYEKHKVYACEVTHQGLSSPVTKSFNRGEC | 11.8 | 2.46 | 7.26e-05 | 29500 | 2.77e-08 | 5.63e-08 | 1.19e-08 | 49.1 | 60.8 | 83.1 | 0.22 | 1.29e-05 | 58600
hz72C1-1.1 (antibody, human IgG4 S228P, kappa, Humanized, human IgG4 / kappa; also called humanized 72C1 antibody 1.1) heavy: not shown light: DIQMTQSPSSLSASVGDRVTITCRASSNVRYMYWYQQKPGKAPKLWIYLTSNLASGVPSRFSGSGSGTSYTLTISSLQPEDFATYYCQQFTTSPYTFGQGTKLEIKRTVAAPSVFIFPPSDEQLKSGTASVVCLLNNFYPREAKVQWKVDNALQSGNSQESVTEQDSKDSTYSLSSTLTLSKADYEKHKVYACEVTHQGLSSPVTKSFNRGEC |  | 0.66 | 1.51e-05 | 22800 | 3.15e-09 | 3.09e-09 | 1.66e-09 | 101 | 100 | 104 |  |  | 
hz72C1-1.3 (antibody, human IgG4 S228P, kappa, Humanized, human IgG4 / kappa) heavy: not shown light: DIQMTQSPSSLSASVGDRVTITCRASSNVRYMYWYQQKPGKAPKLWIYLTSNLASGVPSRFSGSGSGTSYTLTISSLQPEDFATYYCQQFTTSPYTFGQGTKLEIKRTVAAPSVFIFPPSDEQLKSGTASVVCLLNNFYPREAKVQWKVDNALQSGNSQESVTEQDSKDSTYSLSSTLTLSKADYEKHKVYACEVTHQGLSSPVTKSFNRGEC |  | 0.445 | 9.42e-06 | 21200 | 3.13e-09 | 2.7e-09 | 1.65e-09 | 101 | 101 | 103 |  |  | 
chimeric 84C4 antibody (antibody, human IgG4 S228P, kappa, Mouse variable regions on human IgG4 / kappa; also called xi84C4) heavy: not shown light: DILMTQSPSSLSASLGERVSLTCRASQDIGNALNWLQQAPDGTIKRLIYATSSLDPGVPKRFSGSRSGSDYSLTISSLASEDFVYYYCLQYASSPYTFGGGTKLEIKRTVAAPSVFIFPPSDEQLKSGTASVVCLLNNFYPREAKVQWKVDNALQSGNSQESVTEQDSKDSTYSLSSTLTLSKADYEKHKVYACEVTHQGLSSPVTKSFNRGEC |  |  |  |  |  |  |  |  |  |  | 0.66 | 7e-05 | 106000
